This note sets out measurements from article PMC5357137.

The Kd is a measure of binding affinity in units of concentration.

Series [1] has as its system MuA delta domain III (catalytic subunits of delta domain III CDC);SinMu chimera (non-catalytic subunits) (bacteriophage Mu;bacteriophage Mu; Sin recombinase (organism not stated)). Nature of the series: fluorescence anisotropy. The note with it: Mg2+, DMSO; CDC with 3'ddA Mu ends; single G:G mismatch at center; Anisotropy: purified CDCs diluted in reaction buffer with MgCl2 (+/- DMSO; concentrations, salt and pH not in material), 6 nM Atto565 target DNA, 1 h, room ….

Series [2] relates to MuA transposase in cleaved-donor complex (CDC, WT transpososome) (bacteriophage Mu). Nature of the series: fluorescence anisotropy. Conditions: Mg2+, CDC with 3'ddA Mu ends, Anisotropy: purified CDCs diluted in reaction buffer with MgCl2 (+/- DMSO; concentrations, salt and pH not in material), 6 nM Atto565 target DNA, 1 h, room …. On the technique in general: Fluorescence polarisation rises when a labelled molecule tumbles more slowly, as on binding a larger partner.

As for “target DNA with central G:G mismatch, 35 bp”, the Kd in series [1] came to 38 nM; in series [2] (DMSO, Hill coefficient 2.6, single G:G mismatch at center), 15 nM; in series [2] (no DMSO, Hill coefficient 3.3, single G:G mismatch at center), 15 nM.
For the substance target DNA, fully base paired, 35 bp, the Kd in series [2] (DMSO) turned out to be 29 nM.
